This assay addresses mannose-6-phosphate receptor (human (cultured skin fibroblasts from a Fabry disease patient)) (UniProt O00264). The assay can be described thus: cell-based or functional assay.
Sequence of UniProt O00264 (O00264 whole entry): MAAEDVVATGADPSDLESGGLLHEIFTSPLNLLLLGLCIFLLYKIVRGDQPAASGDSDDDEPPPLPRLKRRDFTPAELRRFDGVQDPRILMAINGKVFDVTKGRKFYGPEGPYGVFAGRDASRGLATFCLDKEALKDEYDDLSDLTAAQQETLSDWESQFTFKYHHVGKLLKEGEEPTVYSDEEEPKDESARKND

Substance “mannosidase-treated α-galactosidase (human α-galactosidase produced by S. cerevisiae strain HPY21G, treated with Cellulomonas SO-5-derived α-mannosidase) (from UniProt P06280 32-429) (enzyme)” had a α-galactosidase activity in the cell extract of Fabry patient-derived fibroblasts 18 hours after adding enzyme at 1 µg/ml (uptake experiment) of 3 fold.
